Reference: US20190300604A1 (ASCLEPIUMM TAIWAN, published 2019)

T1: human Desmoglein2 (Dsg2) (human, UniProt Q14126 50-1118)
T1 construct: whole, on cells; also called Dsg2-expressing cells
T1 sequence (looked up): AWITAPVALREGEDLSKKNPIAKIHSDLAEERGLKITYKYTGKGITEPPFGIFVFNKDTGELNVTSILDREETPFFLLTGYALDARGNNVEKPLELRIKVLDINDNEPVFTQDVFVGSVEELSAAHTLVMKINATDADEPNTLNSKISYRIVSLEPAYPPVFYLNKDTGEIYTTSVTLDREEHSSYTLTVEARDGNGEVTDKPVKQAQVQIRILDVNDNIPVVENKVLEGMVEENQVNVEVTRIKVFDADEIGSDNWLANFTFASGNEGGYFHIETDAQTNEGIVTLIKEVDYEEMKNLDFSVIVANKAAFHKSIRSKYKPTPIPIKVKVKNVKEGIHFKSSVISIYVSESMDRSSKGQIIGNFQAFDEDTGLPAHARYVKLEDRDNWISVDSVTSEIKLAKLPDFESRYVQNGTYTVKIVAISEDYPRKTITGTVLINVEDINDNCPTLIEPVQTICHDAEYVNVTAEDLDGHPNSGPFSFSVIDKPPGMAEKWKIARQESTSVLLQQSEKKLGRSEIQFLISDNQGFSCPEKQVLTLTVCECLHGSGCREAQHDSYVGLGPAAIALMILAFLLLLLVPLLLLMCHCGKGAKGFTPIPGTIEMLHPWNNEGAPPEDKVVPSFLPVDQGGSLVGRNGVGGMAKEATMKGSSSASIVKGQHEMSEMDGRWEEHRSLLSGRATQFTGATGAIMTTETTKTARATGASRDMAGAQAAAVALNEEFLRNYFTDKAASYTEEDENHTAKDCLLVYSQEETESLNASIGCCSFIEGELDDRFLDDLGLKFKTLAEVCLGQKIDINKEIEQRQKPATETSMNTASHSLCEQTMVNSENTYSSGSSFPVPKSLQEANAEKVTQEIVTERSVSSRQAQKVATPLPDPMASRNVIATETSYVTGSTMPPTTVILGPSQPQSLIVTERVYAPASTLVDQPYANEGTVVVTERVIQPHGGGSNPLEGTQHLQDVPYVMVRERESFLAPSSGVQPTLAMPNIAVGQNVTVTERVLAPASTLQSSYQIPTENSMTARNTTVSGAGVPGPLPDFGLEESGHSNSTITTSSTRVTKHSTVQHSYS


Biological target: T1, human Desmoglein2 (Dsg2)
Assay: flow cytometry and Western blotting, Dsg2 knockdown and Dsg2 over-expression cells

binding result | Binder
binds | Dsg2 monoclonal antibody 3D4 (antibody, V domains shown, Mouse hybridoma antibody from BALB/c mice, detected with anti-mouse IgG Fc-gamma specific antibody; also called mAb 3D4) VH: QIQLVQSGPELKKPGETVKISCKASGYTFTNYGMNWVRQAPGKALKWMVWMNTNTGESIYAEEFKGRFVFSLDTSASTAYLQINNLNNEDTATYFCARYWDTYWGQGTTLTVSS VL: DIKMTQSPSSMYASLGERVTITCKASQDINSYLSWFQQKPGKSPKTLIYRANRLVDGVPSRFSGSGSGQDFSLTISSLEYEDMGIYYCLQYDEFPYTFGGGTKLEIK
binds | Dsg2 monoclonal antibody 13D3 (antibody, V domains shown, Mouse hybridoma antibody from BALB/c mice, detected with anti-mouse IgG Fc-gamma specific antibody; also called mAb 13D3) VH: QVQLQQPGAELVKPGASVKLSCKASGYTFTSYYMYWVKQRPGQGLEWIGGINPNNGGTNFNEKFKSKATLTVDKSSSTAYMQLRSLTSEDSAVYYCIRGSGYGNWGQGTLVTVSA VL: DIKMTQSPSSMYASLGERVTITCKASQDINGYLSWFQQKPGKSPKTLIYRANRLVDGVPSRFSGSGSGQDYSLTISSLEYEDMGIYYCLQYDEFPYTFGGGTKLEIK
